Results taken from patent US9815881B2, “Method of inducing labor or treating pre-eclampsia by administering relaxin analogs” (The Board of Trustees of the Leland Stanford Junior …, priority 2009, dated 2017).
Where no end group is shown, it is not given here.

B1: WT INSL3: recombinant wild type human insulin-like 3 (protein)
chain 1: PTPEMREKLCGHHFVRALVRVCGGPRWSTEAHHHHHH
chain 2: AAATNPARYCCLSGCTQQDLLTLCPY
modifications: left off: small tags and cut ends

Assays:
LGR7 [1] = biological target: T1, LGR7 (Homo sapiens, UniProt Q9HBX9); experiment: Receptor-activation analysis: cAMP production in LGR7-expressing HEK293T cells; format: cell-based; details: for LGR7-activation activity (result in words): LGR7-expressing HEK293T cells; for pEC50 on the activation of LGR7: HEK293T cells stably expressing LGR7, mean ± S.E., ND = pEC50 not measurable
T1 construct: HEK293T cells stably expressing recombinant LGR7 or LGR8; expressed in transfected cells
T1 sequence (Q9HBX9 1-757): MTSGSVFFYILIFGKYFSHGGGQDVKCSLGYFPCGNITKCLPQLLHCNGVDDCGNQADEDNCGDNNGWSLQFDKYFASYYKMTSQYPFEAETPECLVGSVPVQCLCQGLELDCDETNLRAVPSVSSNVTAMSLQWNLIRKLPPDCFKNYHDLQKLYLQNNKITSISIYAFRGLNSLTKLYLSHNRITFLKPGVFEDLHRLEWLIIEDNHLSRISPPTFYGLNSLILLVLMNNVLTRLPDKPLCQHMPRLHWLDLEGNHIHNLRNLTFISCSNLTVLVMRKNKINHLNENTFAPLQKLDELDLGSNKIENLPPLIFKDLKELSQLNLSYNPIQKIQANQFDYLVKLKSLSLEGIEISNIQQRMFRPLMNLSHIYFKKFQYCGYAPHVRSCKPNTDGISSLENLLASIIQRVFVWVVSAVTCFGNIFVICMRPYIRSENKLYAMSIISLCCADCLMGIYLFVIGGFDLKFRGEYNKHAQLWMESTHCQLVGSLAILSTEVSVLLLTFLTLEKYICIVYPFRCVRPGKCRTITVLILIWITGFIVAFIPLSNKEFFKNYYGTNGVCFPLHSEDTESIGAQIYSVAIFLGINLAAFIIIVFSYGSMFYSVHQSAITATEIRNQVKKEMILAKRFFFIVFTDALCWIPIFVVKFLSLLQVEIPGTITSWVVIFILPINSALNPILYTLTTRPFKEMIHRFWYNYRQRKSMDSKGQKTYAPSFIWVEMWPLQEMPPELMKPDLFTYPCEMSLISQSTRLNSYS
Method: (§1) The bioactivity of relaxin family peptides was determined based on the stimulation of adenylate cyclase activity in HEK293T cells stably expressing recombinant LGR7 or LGR8. Stable LGR7- or LGR8-expressing cells were maintained in Dulbecco's modified Eagle's medium/F-12 media supplemented with […] Zeocin (Invitrogen). After seeding at a density of 2×10^5 cells per well in 500 μl of Dulbecco's modified Eagle's medium/F-12 medium containing 0.1% bovine serum albumin in 48-well plates, cells were preincubated at 37° C. for 30 min in the presence of 0.25 mM 3-isobutyl-1-methylxanthine before treatment with increasing concentrations of peptides (from 0 to 100 nM) in quadruplicate. Twelve hours after treatment, the culture was reacted with acetic anhydride/triethylamine, and total cAMP content in cell lysates was measured using a specific cAMP radioimmunoassay. A nontagged human RLN2 peptide was used as a standard to verify the bioactivity of tagged RLN2 peptides.
(§2) Receptor-activation and receptor binding activity curves generated in nonlinear regression analyses (Prism; GraphPad Software, San Diego, Calif.) were evaluated relative to the samples without hormone treatment. In all cases data are reported as the mean±S.E. of assays in triplicate or quadruplicate. Statistically significant responses (p<0.05) were determined for each stimulated response to the average nonspecific response from control samples using analysis of variance and Student's t test.

LGR8 = biological target: T2, LGR8 (Homo sapiens, UniProt Q8WXD0); experiment: Receptor-activation analysis: cAMP production in LGR8-expressing HEK293T cells; format: cell-based; details: for LGR8-activation activity (result in words): LGR8-expressing HEK293T cells
T2 construct: HEK293T cells stably expressing recombinant LGR7 or LGR8; expressed in transfected cells
T2 sequence (Q8WXD0 whole entry): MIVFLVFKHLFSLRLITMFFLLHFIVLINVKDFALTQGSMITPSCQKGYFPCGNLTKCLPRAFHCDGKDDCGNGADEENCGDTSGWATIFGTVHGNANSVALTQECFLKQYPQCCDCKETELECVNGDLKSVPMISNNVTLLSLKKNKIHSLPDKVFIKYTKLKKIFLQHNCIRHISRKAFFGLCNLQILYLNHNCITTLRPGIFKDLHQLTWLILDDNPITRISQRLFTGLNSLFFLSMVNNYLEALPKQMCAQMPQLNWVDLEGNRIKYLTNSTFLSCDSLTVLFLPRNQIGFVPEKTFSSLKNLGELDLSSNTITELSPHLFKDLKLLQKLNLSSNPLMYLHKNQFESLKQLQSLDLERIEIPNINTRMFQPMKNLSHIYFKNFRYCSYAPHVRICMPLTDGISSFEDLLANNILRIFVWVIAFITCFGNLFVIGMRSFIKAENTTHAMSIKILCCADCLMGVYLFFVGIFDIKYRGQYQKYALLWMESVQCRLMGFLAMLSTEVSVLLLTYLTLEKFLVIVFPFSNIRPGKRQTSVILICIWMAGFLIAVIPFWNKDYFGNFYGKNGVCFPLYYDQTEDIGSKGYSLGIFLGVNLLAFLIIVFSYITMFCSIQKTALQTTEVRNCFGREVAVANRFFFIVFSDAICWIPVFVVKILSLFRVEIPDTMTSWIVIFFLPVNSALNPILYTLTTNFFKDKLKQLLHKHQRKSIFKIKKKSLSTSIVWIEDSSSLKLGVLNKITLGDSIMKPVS
Method: as §1, §2

LGR7 [2] = biological target: T1, LGR7; experiment: Receptor-binding assay: competition for 125I-labeled RLN2 binding to LGR7-expressing HEK293T cells; details: competition for labeled RLN2 binding to LGR7
Method: To determine the binding characteristics of wild type and mutant peptides, HEK293T cells expressing LGR7 or LGR8 were grown to 90% confluence, collected by centrifugation at 3000×g for 2 min, and washed two times in 2 ml of ice-cold binding buffer. Cells were resuspended in ice-cold binding buffer, and aliquots of cell suspension were incubated with increasing doses of purified recombinant peptides in the presence of 0.025 pmol of ^125I-labeled RLN2 tracer (Phoenix Pharmaceuticals, Burlingame, Calif.) at room temperature for 2 h. After washing three times in an ice-cold binding buffer, radioactivity bound to the cells was measured using a γ-counter (EG&G Wallace, Gaithersburg, Md.). Total binding was determined in the absence, and nonspecific binding in the presence, of 25 nmol of unlabeled RLN2. In regular assays, total binding was ˜30,000 cpm, and nonspecific binding amounted to less than 20% of the total binding. Data points were collected in triplicate, and similar results were obtained in at least two independent assays.
as §2

Row | Molecule | LGR7-activation activity (result in words) (LGR7 [1]) | LGR8-activation activity (result in words) (LGR8) | pEC50 on the activation of LGR7 (LGR7 [1]) | further results
1 | RLN2 T^A16A: RLN2 mutant with alanine substitution at ThrA16 of the A chain (chain 1 SWMEEVIKLCGRELVRAQIAICGMSTWSHHHHHH; chain 2 QLYSALANKCCHVGCAKRSLARFC; not fully specified; ends and bridges not checked) | high potencies on the activation of both LGR7 and LGR8 | significantly enhanced LGR8-activation activity |  | LGR8-activation activity (result in words) (LGR8; listed as RLN2 TA16A): high potencies on the activation of both LGR7 and LGR8
2 | RLN2 K^A17Q: RLN2 mutant with glutamine at the LysA17 position (chain 1 SWMEEVIKLCGRELVRAQIAICGMSTWSHHHHHH; chain 2 QLYSALANKCCHVGCTQRSLARFC; not fully specified; ends and bridges not checked) |  | did not exhibit an enhanced LGR8-activation activity |  | 
3 | WT RLN2 (His2): recombinant wild type RLN2 with N-terminal Myc tag and His6 tag at the N or C terminus of the B chain (position 2) (chain 1 SWMEEVIKLCGRELVRAQIAICGMSTWS; chain 2 QLYSALANKCCHVGCTKRSLARFC; not fully specified; ends and bridges not checked; also: N-terminal Myc tag) |  |  | 8.77 ± 0.10 | 
4 | RLN2 C-104: tagged RLN2 derived from the construct containing a 104-amino acid C domain sequence (chain 1 SWMEEVIKLCGRELVRAQIAICGMSTWSHHHHHH; chain 2 QLYSALANKCCHVGCTKRSLARFC; not fully specified; ends and bridges not checked) |  |  | 8.74 ± 0.05 | 
5 | RLN2 C-8: Myc- and His6-tagged RLN2 from construct with a truncated C-domain of 8 amino acids (chain 1 SWMEEVIKLCGRELVRAQIAICGMSTWSHHHHHH; chain 2 QLYSALANKCCHVGCTKRSLARFC; ends and bridges not checked; also: Myc tag, not in given chain) |  |  |  | LGR7-binding activity (result in words) (LGR7 [2]): high affinity
6 | RLN2 C-18: tagged RLN2 from construct with B and A chains linked by a truncated C-domain of 18 amino acids (chain 1 SWMEEVIKLCGRELVRAQIAICGMSTWSHHHHHH; chain 2 QLYSALANKCCHVGCTKRSLARFC; not fully specified; ends and bridges not checked) |  |  | 8.74 ± 0.09 | 
7 | RLN2 R^B16A: RLN2 mutant with alanine substitution of ArgB16 in the B chain RXXXRXXI motif (chain 1 SWMEEVIKLCGRELVAAQIAICGMSTWSHHHHHH; chain 2 QLYSALANKCCHVGCTKRSLARFC; not fully specified; ends and bridges not checked) | abolished the LGR7- and LGR8-activation activities | abolished the LGR7- and LGR8-activation activities |  | 
8 | WT RLN2 (His1): recombinant wild type RLN2 with N-terminal Myc tag and His6 tag at the N or C terminus of the B chain (position 1) (chain 1 SWMEEVIKLCGRELVRAQIAICGMSTWS; chain 2 QLYSALANKCCHVGCTKRSLARFC; not fully specified; ends and bridges not checked; also: N-terminal Myc tag) |  |  | 8.66 ± 0.09 | 
9 | RLN2 K^A17D: RLN2 mutant with aspartic acid at the LysA17 position (chain 1 SWMEEVIKLCGRELVRAQIAICGMSTWSHHHHHH; chain 2 QLYSALANKCCHVGCTDRSLARFC; not fully specified; ends and bridges not checked) |  | did not exhibit an enhanced LGR8-activation activity |  | 
10 | WT RLN3: recombinant wild type human relaxin 3 [reference compound] | selectively activated |  | 7.73 ± 0.07 | 
11 | RLN2 K^A17A: RLN2 mutant with alanine substitution at LysA17 of the A chain (chain 1 SWMEEVIKLCGRELVRAQIAICGMSTWSHHHHHH; chain 2 QLYSALANKCCHVGCTARSLARFC; not fully specified; ends and bridges not checked) | high potencies on the activation of both LGR7 and LGR8 | significantly enhanced LGR8-activation activity |  | LGR8-activation activity (result in words) (LGR8; listed as RLN2 KA17A): high potencies on the activation of both LGR7 and LGR8
12 | RLN2 R^B12A: RLN2 mutant with alanine substitution of ArgB12 in the B chain RXXXRXXI motif (chain 1 SWMEEVIKLCGAELVRAQIAICGMSTWSHHHHHH; chain 2 QLYSALANKCCHVGCTKRSLARFC; not fully specified; ends and bridges not checked) | abolished the LGR7- and LGR8-activation activities | abolished the LGR7- and LGR8-activation activities |  | 
13 | RLN2^A19-20: RLN2 mutant with alanine substitution at the A19-20 positions of the A chain (chain 1 SWMEEVIKLCGRELVRAQIAICGMSTWSHHHHHH; chain 2 QLYSALANKCCHVGCTKRAAARFC; not fully specified; ends and bridges not checked) | decreased LGR7-activation activities |  |  | 
14 | RLN2 C-28: tagged RLN2 from construct with B and A chains linked by a truncated C-domain of 28 amino acids (chain 1 SWMEEVIKLCGRELVRAQIAICGMSTWSHHHHHH; chain 2 QLYSALANKCCHVGCTKRSLARFC; not fully specified; ends and bridges not checked) |  |  | 8.66 ± 0.07 | 
15 | RLN2 K^A17G: RLN2 mutant with glycine at the LysA17 position (chain 1 SWMEEVIKLCGRELVRAQIAICGMSTWSHHHHHH; chain 2 QLYSALANKCCHVGCTGRSLARFC; not fully specified; ends and bridges not checked) |  | did not exhibit an enhanced LGR8-activation activity |  | 
16 | B1 |  | selectively activated |  | pEC50 on the activation of LGR8 (LGR8; HEK293T cells stably expressing LGR8, mean ± S.E., ND = pEC50 not measurable): 9.03 ± 0.05
